Laboratory results: article doi:10.1101/483925
Where two headings read alike, the source gives them in different places.

T1: FD full-length (Arabidopsis thaliana, UniProt Q84JK2 1-285)
T1 sequence: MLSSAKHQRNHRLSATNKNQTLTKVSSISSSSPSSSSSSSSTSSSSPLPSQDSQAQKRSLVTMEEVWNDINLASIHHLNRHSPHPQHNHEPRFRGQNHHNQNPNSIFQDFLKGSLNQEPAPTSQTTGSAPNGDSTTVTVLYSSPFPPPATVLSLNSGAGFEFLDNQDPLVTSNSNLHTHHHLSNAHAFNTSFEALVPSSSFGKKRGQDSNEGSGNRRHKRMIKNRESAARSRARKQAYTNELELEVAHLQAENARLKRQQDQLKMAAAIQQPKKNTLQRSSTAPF

T2: FD-C (Arabidopsis thaliana, UniProt Q84JK2 203-285)
T2 sequence: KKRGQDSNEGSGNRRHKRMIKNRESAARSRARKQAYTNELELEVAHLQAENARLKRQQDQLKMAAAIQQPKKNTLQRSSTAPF

T3: FD-C_T282E;14-3-3nu (GRF7) (Arabidopsis thaliana;Arabidopsis …, UniProt Q84JK2;Q96300 203-285;1-265, T282E|)
T3 sequence 1: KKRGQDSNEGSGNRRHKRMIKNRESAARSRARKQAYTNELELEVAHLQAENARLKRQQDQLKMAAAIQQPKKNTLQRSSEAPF
T3 sequence 2: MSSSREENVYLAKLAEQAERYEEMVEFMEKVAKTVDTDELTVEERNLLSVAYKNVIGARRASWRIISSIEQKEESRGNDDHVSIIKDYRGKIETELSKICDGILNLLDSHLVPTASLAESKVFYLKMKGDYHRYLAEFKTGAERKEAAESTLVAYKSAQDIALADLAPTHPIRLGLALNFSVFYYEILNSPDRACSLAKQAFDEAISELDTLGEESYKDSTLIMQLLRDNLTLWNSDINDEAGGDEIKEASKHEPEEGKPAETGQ

T4: FD-C_T282E (Arabidopsis thaliana, UniProt Q84JK2 203-285, T282E)
T4 sequence: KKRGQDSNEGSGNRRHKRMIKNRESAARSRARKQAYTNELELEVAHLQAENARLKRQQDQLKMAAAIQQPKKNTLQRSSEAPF

T5: FD T282E full-length (Arabidopsis thaliana, UniProt Q84JK2 1-285, T282E)
T5 sequence: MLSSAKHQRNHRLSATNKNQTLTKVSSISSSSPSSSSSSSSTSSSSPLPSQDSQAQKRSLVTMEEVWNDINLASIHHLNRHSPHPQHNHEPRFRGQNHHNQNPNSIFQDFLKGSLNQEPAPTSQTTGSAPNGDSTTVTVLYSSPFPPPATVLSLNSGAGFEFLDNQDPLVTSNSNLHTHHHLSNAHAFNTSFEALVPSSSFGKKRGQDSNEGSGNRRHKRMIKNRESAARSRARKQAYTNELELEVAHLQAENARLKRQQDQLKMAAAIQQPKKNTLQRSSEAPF


Tests used:
Experiment in all cases: EMSA
FD full-length [1] = molecular target: T1, FD full-length
FD-C = molecular target: T2, FD-C
[2] = molecular target: FD-C_T282E;14-3-3nu (GRF7);TFL1 (Arabidopsis thaliana;Arabidopsis …, UniProt Q84JK2;Q96300;P93003 203-285;1-265;1-177, T282E||)
[3] = molecular target: T6, FD-C_T282E;14-3-3nu (GRF7);FT (Arabidopsis thaliana;Arabidopsis …, UniProt Q84JK2;Q96300;Q9SXZ2 203-285;1-265;1-175, T282E||)
[4] = molecular target: FD-C;14-3-3nu (GRF7);TFL1 (Arabidopsis thaliana;Arabidopsis …, UniProt Q84JK2;Q96300;P93003 203-285;1-265;1-177, ||)
[5] = molecular target: T3, FD-C_T282E;14-3-3nu (GRF7)
FD-C_T282E = molecular target: T4, FD-C_T282E
FD T282E full-length = molecular target: T5, FD T282E full-length
FD full-length [6] = molecular target: T1, FD full-length; remark: listed apart in the source
[7] = molecular target: T6, FD-C_T282E;14-3-3nu (GRF7);FT; remark: listed apart in the source

T6 sequence (Q9SXZ2 whole entry, stated change not applied, one chain of several): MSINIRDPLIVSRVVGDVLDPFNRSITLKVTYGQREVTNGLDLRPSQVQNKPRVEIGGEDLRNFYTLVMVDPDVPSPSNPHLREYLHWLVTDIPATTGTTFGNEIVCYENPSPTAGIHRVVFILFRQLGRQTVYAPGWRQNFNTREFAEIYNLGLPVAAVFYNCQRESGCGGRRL
Sequence of FD-C_T282E;14-3-3nu (GRF7);TFL1 (P93003 whole entry, stated change not applied, one chain of several): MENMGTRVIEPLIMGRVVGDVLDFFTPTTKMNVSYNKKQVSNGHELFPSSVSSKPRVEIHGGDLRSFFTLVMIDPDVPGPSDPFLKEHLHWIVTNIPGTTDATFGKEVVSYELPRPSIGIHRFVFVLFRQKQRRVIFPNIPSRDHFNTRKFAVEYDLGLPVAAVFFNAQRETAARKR
Sequence of FD-C;14-3-3nu (GRF7);TFL1 (P93003 whole entry, one chain of several): as the sequence (P93003 whole entry, stated change not applied, one chain of several) above

Binder | binding result (FD full-length [1]) | binding result (FD-C) | binding result [2] | binding result [5] | further results
SEP3 G-box to C-box (GACGTC) (dsDNA) DNA 1: CGAGATGTCGAGACGTCTCCAAACTCAT DNA 2: ATGAGTTTGGAGACGTCTCGACATCTCG | no binding | no binding |  |  | 
SEP3 promoter G-box probe (dsDNA) DNA 1: CGAGATGTCGACACGTGTCCAAACTCAT DNA 2: ATGAGTTTGGACACGTGTCGACATCTCG |  |  | binds | binds | binding result [3]: binds; binding result [4]: binds; binding result (FD-C_T282E): binds; binding result (FD T282E full-length): binds; binding result (FD full-length [6]): binds
SEP3 G-box CG to TA (CATATG) (dsDNA) DNA 1: CGAGATGTCGACATATGTCCAAACTCAT DNA 2: ATGAGTTTGGACATATGTCGACATCTCG | no binding | no binding |  |  | 
SEP3 G-box CG to GC (CAGCTG) (dsDNA) DNA 1: CGAGATGTCGACAGCTGTCCAAACTCAT DNA 2: ATGAGTTTGGACAGCTGTCGACATCTCG | binds | binds |  |  | 
AP1 promoter site 2 (dsDNA) DNA 1: TACCAATGAGAAGTCGACACGCAAATCCTA DNA 2: TAGGATTTGCGTGTCGACTTCTCATTGGTA |  |  | binds | binds | binding result [7]: binds
